The target of data set [1] is T1, CD73 (Homo sapiens, UniProt P21589).
T1 construct: endogenous in cells; host or cells: Whole blood of cancer patients (CD73+ CD8 T cells)
T1 sequence (P21589 27-549): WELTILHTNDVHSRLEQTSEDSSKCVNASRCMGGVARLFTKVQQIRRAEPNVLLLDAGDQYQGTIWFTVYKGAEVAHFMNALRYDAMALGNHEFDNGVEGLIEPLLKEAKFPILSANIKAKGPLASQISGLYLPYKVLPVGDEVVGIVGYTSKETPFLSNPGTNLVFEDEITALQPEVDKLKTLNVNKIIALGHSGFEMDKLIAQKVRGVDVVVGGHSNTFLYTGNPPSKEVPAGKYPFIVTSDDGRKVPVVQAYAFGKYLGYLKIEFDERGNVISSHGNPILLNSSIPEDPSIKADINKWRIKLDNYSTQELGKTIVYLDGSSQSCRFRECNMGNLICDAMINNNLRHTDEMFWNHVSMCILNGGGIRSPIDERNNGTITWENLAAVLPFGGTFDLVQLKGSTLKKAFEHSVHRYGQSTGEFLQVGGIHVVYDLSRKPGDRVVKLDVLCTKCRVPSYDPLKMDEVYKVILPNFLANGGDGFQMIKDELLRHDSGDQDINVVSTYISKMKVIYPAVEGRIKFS
Nature of the data set: CD73 catalytic activity in MDA-MB-231 cells (phosphate, Sensolyte Malachite Green). The data set is classed as cell-based. The settings on record: 250 μM AMP, FIG. 1B. On the procedure:
FIG. 1A provides a schematic of CD73 structure. […] Each symbol represents an independent donor.
MDA-MB-231 cells (e.g., available at ATCC® as HTB-26™) were incubated with a human IgG1 isotype control, CPI-006, CPX-016, or adenosine 5′-(α,β-methylene)diphosphate (also known as APCP, which is a small molecule inhibitor of CD73 enzymatic activity), prior to addition of 250 μM of adenosine monophosphate (AMP). Phosphate levels were measured in the cell culture supernatant using the Sensolyte Malachite Green assay kit. Peripheral blood mononuclear cells (PBMC) were isolated from healthy donors and labeled with CellTrace™ Violet (ThermoFisher Scientific) prior to culture with 1 μg/mL anti-CD3 and anti-CD28, 200 units/mL IL-2, 3 mM AMP and indicated treatments (CPI-006 at 500 nM; CPX-016 at 500 nM; human IgG1 isotype control at 890 nM). T cell proliferation was measured by Cell Trace Violet dilution and was defined by gating relative to unstimulated PBMC (FIG. 1C). IFN-gamma production was measured in cell culture supernatants by AlphaLISA (FIG. 1D). Results shown in FIGS. 1B-D illustrate that inhibition of CD73 activity has an agonistic effect on immunomodulatory activity.

Data set [2] concerns the target T1, CD73. Nature of the data set: Phase 1/1B clinical trial: CD73 receptor occupancy in peripheral blood by flow cytometry. The data set is classed as in vivo. The settings on record: for sustained CD73 receptor occupancy in peripheral blood: once every 21 days. As for the experimental part: FIGS. 3A-3D show the pharmacokinetics/pharmacodynamics and CD73 receptor occupancy of CPI-006 after a first infusion in human patients. […] The dotted line marks one-hundred percent occupancy CD73 receptor occupancy. […]
With reference to Table 1, serum samples were collected from patients treated with CPI-006 alone (i.e., monotherapy) and levels of free CPI-006 were measured by ELISA, as shown in FIG. 3A. Whole blood samples from patients treated with CPI-006 alone were fixed and receptor occupancy was measured by flow cytometry gating on CD73+CD8 T cells, as shown in FIG. 3B. As illustrated in FIGS. 3A-3D, receptor exposure to CPI-006 increases and clearance decreases with increasing doses of CPI-006, and CIP-006 is detectable for 21 days after administration of a single dose of 6 mg/kg or higher. […] Other results from the study are described below and in Table 4. BLQ is below limit of quantification. TBD is to be determined.

For data set [3], the system named is peripheral B cells, T cells, NK cells, monocytes. Nature of the data set: Phase 1/1B clinical trial: circulating lymphocyte subsets in whole blood by flow cytometry. The class given is in vivo, human. As for the experimental part: The highest line at day 10 represents 1 mg/kg, the second highest line at day 10 represents 3 mg/kg, the second lowest line at day 10 represents 6 mg/kg, and the lowest line at day 10 represents 12 mg/kg.
Whole blood was collected pre-treatment or at 0.5 hr or 24 hr after administration of CPI-006 as a single agent (left) or in combination with CPI-444 (right). The absolute number of CD19+ B cells, CD3+ T cells, CD3+CD4+ T cells, CD3+CD8+ T cells, and CD3−CD16+CD56+ NK cells were determined by flow cytometry with quantification beads.
Blood was collected pre-treatment or 0.5 hr after administration of CPI-006. The absolute number of CD19^+ B cells, as well as the percentage of B cells positive for CD73, were determined using flow cytometry.
Whole blood samples from the patients treated with a single dose (i.e., 1 mg/kg, 3 mg/kg, or 6 mg/kg) of CPI-006 monotherapy were analyzed by flow cytometry to further evaluate immunomodulatory effects. Levels of B cells (CD19+CD3−) are reported as a percent of total lymphocytes (gated based on scatter properties), as shown in FIG. 4A. CD73 expression was evaluated with a non-competing anti-CD73 antibody and is reported on B cells (CD19+CD3−) and T cells (CD19−CD3+), as shown in FIG. 4B. Purified B cells from healthy human donors were incubated with CPI-006 or human IgG1 isotype control at concentrations of 0.1 μg/mL, 1 μg/mL, and 10 μg/mL for 30 minutes.
For orientation: A flow cytometer gives signals particle by particle.

Another data set deals with inflammatory cytokines. Nature of the data set: Phase 1/1B clinical trial: serum cytokine levels. The data set is classed as in vivo, human. The settings on record: patients following treatment. On the procedure:
Immunomodulatory activity of CPI-006 was evaluated in patients administered CPI-006. […] Further, T cell activation was evaluated upon treatment with various dosages of the monotherapy CPI-006 or a combination therapy of CPI-006 and ciforadenant. Once a T cell clone is activated, the clone can expand and produce clonal copies of the original clone. […] The results further affirm CPI-006 is an immunomodulator of CD73 positive cells.

Where [4] appears, read: 3 mg/kg, patients 4-6 (Pancreatic, Pancreatic, Prostate).
Where [5] appears, read: pre-dose versus 30 minutes after administration, FIG. 3D.

Values joined by “and” are separate entries in the source; they are usually repeats but may differ in a detail not shown here. Equal values may be shown once.

B1: CPI-006: humanized CD73 antibody, wherein the light chain is SEQ ID NO:8 and the heavy chain is SEQ ID NO:7; IgG1 Fcγ receptor-deficient (antibody, V domains shown)
VH: QVQLVQSGAEVEKPGASVKVSCKASGYTFTSYWITWVRQAPGQGLEWMGDIYPGSGNTNYNEKFKTRVTITADKSTSTAYMELSSLRSEDTAVYYCAKEGGLTTEDYALDYWGQGTLVTV
VL: EIVLTQSPATLSLSPGERATLSCRASKNVSTSGYSYMHWYQQKPGQAPRLLIYLASNLESGIPPRFSGSGYGTDFTLTINNIESEDAAYYFCQHSRELPFTFGQGTKVEIK
Take B1: the “adenosine production (CD73 catalytic activity)” value with CD73 [1] is recorded as “blocks adenosine production”. The “sustained CD73 receptor occupancy in peripheral blood” value with CD73 [2] (1 mg/kg and 3 mg/kg doses) was “not”. Moreover, the “CD73 receptor occupancy on peripheral B cells” value with CD73 [2] (setting [4]) is 88.12% and 74.57% and 58.19%. Further, the “sustained CD73 receptor occupancy in peripheral blood” value with CD73 [2] (6 mg/kg and 12 mg/kg doses) is reported as “sustained CD73 receptor occupancy”. Also, the “CD73 receptor occupancy on peripheral B cells” value with CD73 [2] (6 mg/kg, patients 7-9 (Colorectal, Prostate, SCHN)) was 97.90% and 98.31% and 101.60%. Besides, the “receptor occupancy dose dependence” value with CD73 [2] (clinical data, 1, 3, and 6 mg/kg) is given as “dose proportional”. Moreover, in the data set with CD73 [2] (setting [5]), the “CPI-006 binding site on cell surface CD73 (free CD73)” value is recorded as “occupied” and the “total cell surface CD73” value is reported as “remains unchanged”. In data set [3] (setting [4]), the “% Decrease of Peripheral B cells at C1D1 (0.5 h)” value was 71.2% and 62.3% and 68.1%. Besides, the “CD73POS B cells levels over time” value in data set [3] (1 to 12 mg/kg, repeated infusions, FIG. 7C) is “decrease with each infusion of CPI-006, and then partially return to a new steady state level”. In addition, in data set [3] (0.5 hours after administration, FIGS. 7A-7B), the “CD4/CD8 ratios, including CD73NEG subsets” value is on record as “increase”. Further, the “number of circulating cells, all evaluated lymphocyte subsets (B, T, CD4+ T, CD8+ T, NK)” value in data set [3] (0.5 hr post-treatment versus pre-treatment, FIG. 12) is on record as “decreased”. In data set [3] (0.5 hr post-treatment, FIG. 13), the “number of circulating CD73+ B cells” value is reported as “substantially decreased” and the “number of circulating CD73− B cells” value is reported as “either unchanged or modestly decreased”. Also, in data set [3] (24 hr post-treatment, FIG. 12), the “number of circulating B cells” value was “partial return” and the “number of circulating cells, other cell types (T, NK)” value is on record as “returned to near baseline levels”. For the same molecule, the HLA-DR expression result in data set [3] (cancer patients receiving 6 mg/kg monotherapy, FIG. 7D) is recorded as “increase in HLA-DR expression, followed by a gradual decrease”. Also, the B lymphocyte trafficking result in data set [3] (clinical data, FIGS. 4A-4B) is recorded as “transient redistribution of B cells”. The “CD73NEG B cells” value in data set [3] (following treatment) is “No significant changes”. For the same molecule, in the data set on inflammatory cytokines (FIG. 8A), the “cytokines including TNF-α, TNF-β, MIP-1α, MIP-1β, IL-6, IL-10, IL-8, IP-10, MCP-1, MCP-2, IL-1Ra, GRO-α, MIP-3α, TNF-RII, IL-7, MMP-9” value is reported as “rapid induction”. Besides, the “levels of CRP and SAA” value in the data set with inflammatory cytokines (FIG. 8B) was “subsequent increase”.
